# Results as given in patent US20240261333A1 (published 2024).
# T1: TFAM (human, UniProt Q00059 43-246)
# T1 construct: Identified by mass spectrometry in the co-IP; also called NP_003192.1
# T1 sequence (looked up): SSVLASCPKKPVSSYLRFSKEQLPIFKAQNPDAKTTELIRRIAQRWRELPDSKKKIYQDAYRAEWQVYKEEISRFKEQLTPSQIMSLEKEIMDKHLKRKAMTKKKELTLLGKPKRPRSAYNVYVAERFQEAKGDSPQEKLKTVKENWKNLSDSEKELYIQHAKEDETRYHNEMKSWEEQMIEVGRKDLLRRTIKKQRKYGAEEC
# T2: CPSF6 (human, UniProt Q16630-2 1-588, limits assumed)
# T2 construct: Identified by mass spectrometry in the co-IP; also called NP_001287876.1 (+3)
# T2 sequence (looked up): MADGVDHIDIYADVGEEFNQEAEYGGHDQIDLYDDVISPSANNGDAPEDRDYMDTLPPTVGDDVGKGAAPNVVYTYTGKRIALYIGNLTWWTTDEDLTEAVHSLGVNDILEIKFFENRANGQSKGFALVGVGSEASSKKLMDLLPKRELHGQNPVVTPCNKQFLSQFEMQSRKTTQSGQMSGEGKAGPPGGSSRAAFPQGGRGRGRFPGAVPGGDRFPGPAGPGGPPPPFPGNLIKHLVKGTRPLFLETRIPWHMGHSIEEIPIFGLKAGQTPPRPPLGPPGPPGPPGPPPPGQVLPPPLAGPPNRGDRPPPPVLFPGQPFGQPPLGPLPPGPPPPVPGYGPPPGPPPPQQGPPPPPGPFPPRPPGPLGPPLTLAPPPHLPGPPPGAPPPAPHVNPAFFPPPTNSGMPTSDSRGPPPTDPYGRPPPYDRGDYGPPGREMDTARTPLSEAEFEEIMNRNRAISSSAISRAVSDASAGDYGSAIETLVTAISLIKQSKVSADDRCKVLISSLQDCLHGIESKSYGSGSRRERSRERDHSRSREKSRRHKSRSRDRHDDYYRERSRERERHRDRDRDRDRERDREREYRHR
# T3: TIMP3 (human, UniProt P35625 24-211)
# T3 construct: Identified by mass spectrometry in the co-IP; also called NP_000353.1
# T3 sequence (looked up): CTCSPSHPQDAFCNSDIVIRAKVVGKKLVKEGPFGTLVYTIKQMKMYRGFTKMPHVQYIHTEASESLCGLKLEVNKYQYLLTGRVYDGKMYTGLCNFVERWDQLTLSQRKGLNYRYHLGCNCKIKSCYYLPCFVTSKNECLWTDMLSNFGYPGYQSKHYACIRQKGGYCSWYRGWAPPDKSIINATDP
# B1: N-terminal FLAG tagged B3GNT2 (enzyme, human, UniProt Q9NY97 1-397, looked up)
# chain: MSVGRRRIKLLGILMMANVFIYFIMEVSKSSSQEKNGKGEVIIPKEKFWKISTPPEAYWNREQEKLNRQYNPILSMLTNQTGEAGRLSNISHLNYCEPDLRVTSVVTGFNNLPDRFKDFLLYLRCRNYSLLIDQPDKCAKKPFLLLAIKSLTPHFARRQAIRESWGQESNAGNQTVVRVFLLGQTPPEDNHPDLSDMLKFESEKHQDILMWNYRDTFFNLSLKEVLFLRWVSTSCPDTEFVFKGDDDVFVNTHHILNYLNSLSKTKAKDLFIGDVIHNAGPHRDKKLKYYIPEVVYSGLYPPYAGGGGFLYSGHLALRLYHITDQVHLYPIDDVYTGMCLQKLGLVPEKHKGFRTFDIEEKNKNNICSYVDLMLVHSRKPQEMIDIWSQLQSAHLKC
# notes: FLAG-tagged ORF overexpressed in A375 cells; bait of the co-IP with mouse anti-FLAG; also called N-FLAG B3GNT2; N-term FLAG; not shown: N-terminal FLAG tag
# Experiments:
# Assay in all cases: co-IP with mouse anti-FLAG from lysate of cells overexpressing N-FLAG B3GNT2, then mass spectrometry
# TFAM = biological target: T1, TFAM
# Description: (§1) Cells were plated in 10-cm cell culture dishes and grown to 60-80% confluency. For each condition, two biological replicates were harvested for co-IP. Cells were washed with PBS and 4 mL of lysis buffer (20 mM HEPES, 1% Triton X-100, 150 mM NaCl, 1 mM EDTA, and 10% glycerol) containing protease inhibitor cocktail was added. Cells were scraped and lysate was incubated at 4° C. under rotary agitation for 1 h. Lysate was centrifuged at 14,000×g for 10 min at 4° C. Supernatant was transferred to a new tube and an aliquot was taken as the input. […] For Western blots, 10 μg/mL Chicken Anti-FLAG (Aves labs ET-DY100) and IgY control (R&D Systems AB-101-C) antibodies were biotinylated (Thermo Fisher Scientific 90407) and added to the respective conditions. Lysates with antibodies were incubated at 4° C. under rotary agitation overnight. For each mL of lysate, 50 μL of Pierce Protein A/G Magnetic Beads (Mass spectrometry; Thermo Fisher Scientific 88803) or Pierce Streptavidin Magnetic Beads (Western blot; Thermo Fisher Scientific 88817) was washed twice with lysis buffer. Lysates with antibodies were added to the beads and incubated at 4° C. under rotary agitation for 4 h. Beads were washed with lysis buffer 3 times and resuspended in lysis buffer for storage.
# (§2) Magnetic beads were resuspended in 100 mM Tris pH 7.8, reduced, alkylated and digested with trypsin at 37° ° C. overnight. This solution was subjected to solid phase extraction to concentrate the peptides and remove unwanted reagents followed by injection onto a Shimadzu HPLC with fraction collector. Eight fractions were collected and after concentration were injected on a Waters NanoAcquity HPLC equipped with a self-packed Aeris 3 μm C18 analytical column 0.075 mm by 20 cm, (Phenomenex). Peptides were eluted using standard reverse-phase gradients. The effluent from the column was analyzed using a Thermo Orbitrap Elite mass spectrometer (nanospray configuration) operated in a data dependent manner for 54 minutes. The resulting fragmentation spectra were correlated against the known database using Proteome Discover 1.4 (Thermo Fisher Scientific).
# CPSF6 = biological target: T2, CPSF6
# Description: as §1, §2
# VIM = biological target: T4, VIM (human, UniProt P08670 2-466)
# T4 construct: Identified by mass spectrometry in the co-IP; also called NP_003371.2
# Description: as §1, §2
# TCP1 = biological target: T5, TCP1 (human, UniProt P17987 1-556)
# T5 construct: Identified by mass spectrometry in the co-IP; also called NP_110379.2
# Description: as §1, §2
# TIMP3 = biological target: T3, TIMP3
# Description: as §1, §2
# T5 sequence (P17987 whole entry): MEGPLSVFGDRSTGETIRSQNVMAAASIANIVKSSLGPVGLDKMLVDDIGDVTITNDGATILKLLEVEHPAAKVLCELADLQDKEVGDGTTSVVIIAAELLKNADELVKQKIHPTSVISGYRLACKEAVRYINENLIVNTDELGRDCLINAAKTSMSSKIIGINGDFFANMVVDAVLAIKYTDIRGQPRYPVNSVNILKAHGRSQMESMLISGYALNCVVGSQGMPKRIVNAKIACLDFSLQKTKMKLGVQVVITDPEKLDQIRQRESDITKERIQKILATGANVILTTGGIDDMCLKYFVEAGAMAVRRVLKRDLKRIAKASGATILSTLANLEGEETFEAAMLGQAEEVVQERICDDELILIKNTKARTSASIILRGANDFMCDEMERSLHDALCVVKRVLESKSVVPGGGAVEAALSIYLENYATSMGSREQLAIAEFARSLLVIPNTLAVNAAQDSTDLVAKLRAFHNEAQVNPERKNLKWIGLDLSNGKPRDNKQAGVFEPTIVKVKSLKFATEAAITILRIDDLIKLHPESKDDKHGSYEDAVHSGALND
# T4 sequence (P08670 2-466 limits assumed): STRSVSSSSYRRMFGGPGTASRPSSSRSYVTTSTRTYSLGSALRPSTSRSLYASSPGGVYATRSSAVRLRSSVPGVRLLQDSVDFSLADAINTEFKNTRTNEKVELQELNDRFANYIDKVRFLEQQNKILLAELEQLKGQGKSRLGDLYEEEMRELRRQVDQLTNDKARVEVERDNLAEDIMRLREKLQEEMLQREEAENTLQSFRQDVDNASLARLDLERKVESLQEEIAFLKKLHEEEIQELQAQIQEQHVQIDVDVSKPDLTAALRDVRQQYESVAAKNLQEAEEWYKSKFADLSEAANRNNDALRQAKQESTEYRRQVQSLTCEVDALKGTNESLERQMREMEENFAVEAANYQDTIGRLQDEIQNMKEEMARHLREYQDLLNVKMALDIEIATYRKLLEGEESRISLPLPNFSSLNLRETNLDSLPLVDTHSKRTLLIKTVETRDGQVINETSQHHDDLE
binder,measurement,setting,value
B1,co-IP mass spectrometry count (N-term FLAG),TFAM,0
same,co-IP mass spectrometry count (N-term FLAG),CPSF6,30
same,co-IP mass spectrometry count (N-term FLAG),VIM,402
same,co-IP mass spectrometry count (N-term FLAG),TCP1,0
same,co-IP mass spectrometry count (N-term FLAG),TIMP3,0
